Experimental data taken from patent US20180355059A1 (PHARMAEXPLORER, published 2018).

What was measured:
[1] = target: T1, recombinant human PCSK9-His protein (Immunogen A) (human, UniProt Q8NBP7 31-692, limits assumed, biotinylated in the ELISA assays); test: ELISA; antibody 0 nM
T1 construct: also called hPCSK9-His; His-tagged hPCSK9; not shown: His tag

[2] = target: T2, recombinant cyno monkey PCSK9 protein (cyno monkey, UniProt A8T666 31-692 (rhesus entry), limits assumed, biotinylated in the ELISA assays); test: ELISA; antibody 0 nM
T2 construct: also called cyno PCSK9; Cyno Monkey PCSK9-His
T2 sequence (A8T666 31-692 limits assumed): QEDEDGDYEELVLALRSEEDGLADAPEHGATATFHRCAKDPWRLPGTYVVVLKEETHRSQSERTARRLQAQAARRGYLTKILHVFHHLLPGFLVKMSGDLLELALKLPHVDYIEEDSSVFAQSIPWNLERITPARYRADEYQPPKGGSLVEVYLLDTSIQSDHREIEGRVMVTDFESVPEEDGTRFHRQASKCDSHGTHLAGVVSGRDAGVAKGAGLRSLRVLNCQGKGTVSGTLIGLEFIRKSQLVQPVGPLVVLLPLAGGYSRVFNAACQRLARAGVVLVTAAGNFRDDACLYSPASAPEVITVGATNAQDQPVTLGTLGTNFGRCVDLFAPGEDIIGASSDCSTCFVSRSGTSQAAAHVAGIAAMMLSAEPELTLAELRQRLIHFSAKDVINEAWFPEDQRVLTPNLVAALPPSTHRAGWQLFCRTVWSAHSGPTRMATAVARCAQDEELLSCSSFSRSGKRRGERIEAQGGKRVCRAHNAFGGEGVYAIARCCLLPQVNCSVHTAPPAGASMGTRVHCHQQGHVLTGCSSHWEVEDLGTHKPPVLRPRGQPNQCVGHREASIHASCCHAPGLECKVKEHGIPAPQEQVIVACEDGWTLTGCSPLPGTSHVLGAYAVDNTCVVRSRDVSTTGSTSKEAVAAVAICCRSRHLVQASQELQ

[3] = target: T1, recombinant human PCSK9-His protein …; test: ELISA; antibody 0.67 nM
[4] = target: T1, recombinant human PCSK9-His protein …; test: ELISA; antibody 6.67 nM
[5] = target: T2, recombinant cyno monkey PCSK9 protein; test: ELISA; antibody 0.67 nM
[6] = target: T2, recombinant cyno monkey PCSK9 protein; test: ELISA; antibody 6.67 nM
[7] = target: T1, recombinant human PCSK9-His protein …; test: ELISA; antibody 0.067 nM
[8] = target: T1, recombinant human PCSK9-His protein …; test: ELISA; antibody 66.67 nM
[9] = target: T2, recombinant cyno monkey PCSK9 protein; test: ELISA; antibody 0.067 nM
[10] = target: T2, recombinant cyno monkey PCSK9 protein; test: ELISA; antibody 66.67 nM
[11] = target: T1, recombinant human PCSK9-His protein …; test: ELISA; antibody 0.0067 nM
[12] = target: T2, recombinant cyno monkey PCSK9 protein; test: ELISA; antibody 0.0067 nM
[13] = target: T1, recombinant human PCSK9-His protein …; test: ELISA; antibody 0.00067 nM
[14] = target: T2, recombinant cyno monkey PCSK9 protein; test: ELISA; antibody 0.00067 nM
[15] = target: T1, recombinant human PCSK9-His protein …; test: ELISA; antibody 0.000067 nM
[16] = target: T2, recombinant cyno monkey PCSK9 protein; test: ELISA; antibody 0.000067 nM
[17] = target: T1, recombinant human PCSK9-His protein …; test: BLI, Octet Red 96; antibody on AHC sensor
Experimental: Dissociation constants were determined by Octed red 96 (Fortiebio). The detailed operation and methods were followed according to the specifications of the instrument provided by the manufacturer. Briefly, an AHC sensor (Anti-human Fc sensor, Fortiebio) was used for the affinity determination. The anti-PCSK9 antibody was diluted to 10 ug/mL in PBS buffer (pH7.4) containing 0.1% (w/w) BSA and 0.02% (v/v) Tween 20 and incubated with the AHC sensor. […] The reaction mixture was further incubated in PBS buffer (pH7.4) containing 0.1% (v/w) BSA and 0.02% (v/v) Tween 20 at 30° C. for 5 minutes.

[18] = target: T1, recombinant human PCSK9-His protein …; test: ELISA of PCSK9 binding to LDLR ECD; antibody 0 nM
[19] = target: T1, recombinant human PCSK9-His protein …; test: ELISA of PCSK9 binding to LDLR ECD; antibody 8 nM
[20] = target: T1, recombinant human PCSK9-His protein …; test: ELISA of PCSK9 binding to LDLR ECD; antibody 40 nM
[21] = target: T1, recombinant human PCSK9-His protein …; test: ELISA of PCSK9 binding to LDLR ECD; antibody 1.6 nM
[22] = target: T1, recombinant human PCSK9-His protein …; test: ELISA of PCSK9 binding to LDLR ECD; antibody 200 nM
[23] = target: T1, recombinant human PCSK9-His protein …; test: ELISA of PCSK9 binding to LDLR ECD; antibody 0.01 nM
[24] = target: T1, recombinant human PCSK9-His protein …; test: ELISA of PCSK9 binding to LDLR ECD; antibody 0.06 nM
[25] = target: T1, recombinant human PCSK9-His protein …; test: ELISA of PCSK9 binding to LDLR ECD; antibody 0.32 nM
[26] = target: T1, recombinant human PCSK9-His protein …; test: SPR, Biacore T200; antibody captured by anti-human Fc
Experimental: Anti-human Fc IgG was immobilized on flow cells 1 and 2: HBS-EP+(10 mM HEPES, 150 mM NaCl, 3 mM EDTA, 0.05% P20, pH 7.4) was used as running buffer, and the immobilization of anti-human Fc IgG was carried out using the immobilization wizard template. Flow cells 1 and 2 of a Series S CM5 sensor chip were activated with freshly-mixed 50 mmol/L NHS and 200 mmol/L EDC. 20 ug/mL of anti-human Fc IgG diluted in 10 mM NaAC (pH 4.5) was injected into the activated flow cells 1 and 2. The remaining active coupling sites were blocked with 1M ethanolamine.
KD measurements were carried out with HBS-EP+ as the running buffer. Each antibody was injected over the CM5 sensor flow cell 2 with a flow rate of 10 uL/min to reach response 230 RU. […] Buffer flow was maintained for 400 seconds for dissociation measurements (30 uL/min). To remove the tested antibody from the surface, 10 mM glycine-HCl pH 1.5 was injected for 20 seconds (30 ulJmin). Flow cell 1 was used as reference flow cell. […] The KD value for each antibody was evaluated using Biacore T200 evaluation software 1.0, and the data was fit with a 1:1 binding model.

Row | Binder | OD450 nm [1] | OD450 nm [2] | OD450 nm [3] | OD450 nm [4] | OD450 nm [5] | OD450 nm [6] | OD450 nm [7] | OD450 nm [8] | OD450 nm [9] | OD450 nm [10] | OD450 nm [11] | OD450 nm [12] | OD450 nm [13] | OD450 nm [14] | OD450 nm [15] | OD450 nm [16] | Kd [17] | OD450 nm [18] | OD450 nm [19] | OD450 nm [20] | other results
1 | 96F8C6, fully human anti-PCSK9 antibody (antibody, human IgG1, V domains shown, also called 98F8C6) VH: EVQLVESGGGLVQPGGSLRLSCAASGITFSSYWMSWVRQAPGKGLEWVANIKQDGSEKYYVDSVKGRFTISRDIAKNSLYLQMNSLRAEDTAVYYCARDRGTYYYGSGSYNYYYYGMDVWGQGTTVTVSS VL: not shown | 0.06 OD450 nm | 0.06 OD450 nm | 3.09 OD450 nm | 3.1 OD450 nm | 2.99 OD450 nm | 3 OD450 nm | 1.65 OD450 nm | 3.06 OD450 nm | 1.86 OD450 nm | 2.97 OD450 nm | 0.25 OD450 nm | 0.31 OD450 nm | 0.08 OD450 nm | 0.09 OD450 nm | 0.06 OD450 nm | 0.08 OD450 nm | 3.63 nM | 2.4 OD450 nm | 2.38 OD450 nm | 2.38 OD450 nm | OD450 nm [21]: 2.4 OD450 nm; OD450 nm [22]: 2.4 OD450 nm; OD450 nm [23]: 2.38 OD450 nm; OD450 nm [24]: 2.43 OD450 nm; OD450 nm [25]: 2.45 OD450 nm; Kd [26]: 2.33 nM
2 | 74C10A8, fully human anti-PCSK9 antibody (antibody, human IgG1, V domains shown) VH: QVQLQESGPGLVKPSETLSLTCSVSGGSINTYYWSWIRQPPGKGLEWIGYIYYSGSTNYNPSLKSRVTISVDTSKNQFSLKLTSVTAADTAVYYCARERFTMVRGVMMDYYYYGMDVWGQGTTVTVSS VL: DIQLTQSPSFLSASVGDRVTITCRASQGISSYLAWYQQKPGKAPKLLIYAASTLQSGVPSRFSGSGSGTEFTLTISSLQPEDFATYYCQQLNSYPRTFGQGTKVEIK | 0.06 OD450 nm | 0.06 OD450 nm | 3 OD450 nm | 3.04 OD450 nm | 2.1 OD450 nm | 2.73 OD450 nm | 1.52 OD450 nm | 3.04 OD450 nm | 0.48 OD450 nm | 2.86 OD450 nm | 0.23 OD450 nm | 0.11 OD450 nm | 0.08 OD450 nm | 0.06 OD450 nm | 0.06 OD450 nm | 0.13 OD450 nm | 14.5 nM | 2.4 OD450 nm | 1.76 OD450 nm | 1.43 OD450 nm | OD450 nm [21]: 2.19 OD450 nm; OD450 nm [22]: 1.41 OD450 nm; OD450 nm [23]: 2.31 OD450 nm; OD450 nm [24]: 2.28 OD450 nm; OD450 nm [25]: 2.32 OD450 nm
3 | 139G1C5, fully human anti-PCSK9 antibody (antibody, human IgG1, V domains shown) VH: QVQLQESGPGLVKPSGTLSLTCAVSGGSISRNNWWSWVRQPPGKGLEWIGEIYHSGSTNYNPSLKSRVTISVDKSKNQFSLKLSSVTAADTAVYYCARDLLGIGLDYWGQGTLVTVSS VL: EFVLTQSPATLSLSPGERAILSCRASQSFSSYIAWYQQKPGQAPRLLIYDASNRATGIPARFSGSGSGTDFTLTISSLEPEDFAVYYCQQHSNWMYTFGQGTKLEIK | 0.06 OD450 nm | 0.06 OD450 nm | 3.05 OD450 nm | 3.06 OD450 nm | 3 OD450 nm | 3.01 OD450 nm | 1.7 OD450 nm | 3.04 OD450 nm | 1.84 OD450 nm | 3 OD450 nm | 0.26 OD450 nm | 0.29 OD450 nm | 0.08 OD450 nm | 0.08 OD450 nm | 0.06 OD450 nm | 0.08 OD450 nm | 0.63 nM | 2.31 OD450 nm | 1.57 OD450 nm | 1.35 OD450 nm | koff [17]: 0.000161 s⁻¹; kon [17]: 254000 M⁻¹ s⁻¹; OD450 nm [21]: 2.16 OD450 nm; OD450 nm [22]: 1.29 OD450 nm; OD450 nm [23]: 2.33 OD450 nm; OD450 nm [24]: 2.31 OD450 nm; OD450 nm [25]: 2.28 OD450 nm; Kd [26]: 0.0709 nM; koff [26]: 2.4e-05 s⁻¹; kon [26]: 240000 M⁻¹ s⁻¹
4 | 152G2F7, fully human anti-PCSK9 antibody (antibody, human IgG1, V domains shown) VH: EVQLVESGGGLVQPGGSLRLSCAASEFTFGGYWMTWVRQAPGKGLEWVANIKQDGSEKYYVDSVKGRFTISRDNAKNSLYLHMNSLRAEDTAVYYCARDRTTMIRGVSLYYYYYGMDVWGQGTAVTVSS VL: EIVLTQSPATLSLSPGERATLSCRASQSVSSYLAWYQQKPGQAPRLLIYDASNRATGIPARFSGSGSGTDFTLTISSLEPEDFAVYYCQQRSNWPLTFGGGTKVEIK | 0.06 OD450 nm | 0.06 OD450 nm | 2.91 OD450 nm | 3.12 OD450 nm | 1.56 OD450 nm | 2.89 OD450 nm | 0.94 OD450 nm | 3.07 OD450 nm | 0.26 OD450 nm | 2.97 OD450 nm | 0.15 OD450 nm | 0.08 OD450 nm | 0.07 OD450 nm | 0.06 OD450 nm | 0.06 OD450 nm | 0.07 OD450 nm | 2.69 nM | 2.29 OD450 nm | 1.86 OD450 nm | 1.31 OD450 nm | koff [17]: 0.000453 s⁻¹; kon [17]: 168000 M⁻¹ s⁻¹; OD450 nm [21]: 2.19 OD450 nm; OD450 nm [22]: 1.32 OD450 nm; OD450 nm [23]: 2.27 OD450 nm; OD450 nm [24]: 2.25 OD450 nm; OD450 nm [25]: 2.31 OD450 nm
